In assay [1] the target is T1, human transferrin receptor 1 (human, UniProt P02786 89-760, limits assumed).
T1 construct: also called hTfR1; huTfR1
Description: average KD, antibody alone; method not given.

Assay [2] concerns the target T2, cynomolgus monkey transferrin receptor 1 (cynomolgus monkey (Macaca fascicularis), UniProt Q5RDH6 89-760 (Pongo abelii entry), limits assumed).
T2 construct: also called cyTfR1; Cyno TfR1
T2 chain: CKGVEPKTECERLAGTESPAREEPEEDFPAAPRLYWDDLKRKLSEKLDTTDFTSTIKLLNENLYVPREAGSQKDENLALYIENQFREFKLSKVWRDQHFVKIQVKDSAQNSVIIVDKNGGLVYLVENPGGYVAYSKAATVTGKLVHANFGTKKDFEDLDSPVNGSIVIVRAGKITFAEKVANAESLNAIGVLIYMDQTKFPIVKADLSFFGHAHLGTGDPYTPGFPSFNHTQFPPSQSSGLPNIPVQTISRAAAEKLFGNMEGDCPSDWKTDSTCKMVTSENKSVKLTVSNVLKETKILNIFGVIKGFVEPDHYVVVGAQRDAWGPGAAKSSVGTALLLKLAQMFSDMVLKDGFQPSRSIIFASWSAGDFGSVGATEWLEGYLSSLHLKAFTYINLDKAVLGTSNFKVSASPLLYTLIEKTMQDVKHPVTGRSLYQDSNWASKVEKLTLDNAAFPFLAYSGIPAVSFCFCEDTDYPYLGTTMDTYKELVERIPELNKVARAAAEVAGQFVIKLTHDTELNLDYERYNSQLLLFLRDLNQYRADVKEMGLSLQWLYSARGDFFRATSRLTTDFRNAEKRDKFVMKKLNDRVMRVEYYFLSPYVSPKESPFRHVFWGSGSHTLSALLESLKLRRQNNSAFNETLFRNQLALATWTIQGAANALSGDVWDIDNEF
Description: average KD, antibody alone; method not given.

The target in assay [3] is T1, human transferrin receptor 1. Description: Carterra LSA SPR array, IgG captured on anti-IgG lawn, hTfR1 as analyte, 25 C, 1:1 Langmuir fit. The procedure: Selected anti-TfR1 antibodies were tested for their binding affinity to human TfR1 for measurement of Ka (association rate constant), Kd (dissociation rate constant), and KD (affinity). […] The binding experiment was performed on Carterra LSA at 25 C. An anti-mouse IgG and anti-human IgG antibody “lawn” was prepared on a HC30M chip by amine coupling. 59 IgGs (58 mouse mAbs and 1 human mAb) were captured on the chip. Dilution series of hTfR1, cyTfR1, and hTfR2 were injected to the chip for binding (starting from 1000 nM, 1:3 dilution, 8 concentrations).
Binding data were referenced by subtracting the responses from a buffer analyte injection and globally fitting to a 1:1 Langmuir binding model for estimate of Ka (association rate constant), Kd (dissociation rate constant), and KD (affinity) using the Carterra™ Kinetics software. 5-6 concentrations were used for curve fitting.

B1: 4-O12 (antibody, V domains shown)
VH: EVQLQQSGAELVRPGASVKLSCTASGFNIVDDYMHWVKQRPEQGLEWIGWIYPENADTEYASKFQGKATITADTSSNTAYLQLSSLTSEDTAVYYCTTATGTGWFAYWGQGTLVTVSA
VL: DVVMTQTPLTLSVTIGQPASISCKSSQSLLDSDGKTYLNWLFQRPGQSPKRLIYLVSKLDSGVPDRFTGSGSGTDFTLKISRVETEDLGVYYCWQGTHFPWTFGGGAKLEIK
notes: Tested as a mouse monoclonal IgG
For orientation: Kd means a measure of binding affinity in units of concentration. For orientation: kon means a measure of how fast the partners come together. Turning to B1, the Kd in assay [1] amounted to 1.27 nM; in assay [2], 270 nM; in assay [3], 1.8 nM. In assay [3], this molecule yielded a kon of 79800 M⁻¹ s⁻¹.

B2: 8-D15 (antibody, V domains shown)
VH: QVQLKESGPGLVAPSQSLSITCTVSGFSLTSYAITWVRQSPGKGLEWLGLIWTGGGTNYNSALKSRLSISKDNSKSQVFLKMNSLQTDDTARYYCARIYDGYYRYFDVWGTGTTVTVSS
VL: RIVLTQTPKFLLVSAGDRVTMTCKASQSVSNDVAWYQQKPGQSPKLLIYYASNRYTGVPDRFTGSGYGTDFTFTISTVQAEDLAVYFCQQDYSSPWTFGGGTKLEIK
notes: as for B1
B2: the Kd in assay [1] was 9.15 nM; in assay [2], 11.1 nM; in assay [3], 8.22 nM. Also, the kon in assay [3] is 31300 M⁻¹ s⁻¹.

B3: 5-H12 (antibody, V domains shown)
VH: QIQLQQSGPELVRPGASVKISCKASGYSFTDYCINWVNQRPGQGLEWIGWIYPGSGNTRYSERFKGKATLTVDTSSNTAYMQLSSLTSEDSAVYFCAREDYYPYHGMDYWGQGTSVTVSS
VL: DIVLTQSPTSLAVSLGQRATISCRASESVDGYDNSFMHWYQQKPGQPPKLLIFRASNLESGIPARFSGSGSRTDFTLTINPVEAADVATYYCQQSSEDPWTFGGGTKLEIK
notes: as for B1
With B3, the results for the dissociation constant (Kd) in assay [1], in assay [2] and in assay [3] were 202 nM, 12 nM and 208 nM, respectively. Moreover, in assay [3], the kon turned out to be 66700 M⁻¹ s⁻¹.

B4: 3-A4 (antibody, V domains shown)
VH: EVQLQQSGAELVRPGASVKLSCTASGFNIKDDYMYWVKQRPEQGLEWIGWIDPENGDTEYASKFQDKATVTADTSSNTAYLQLSSLTSEDTAVYYCTLWLRRGLDYWGQGTSVTVSS
VL: DIVMTQAAPSVPVTPGESVSISCRSSKSLLHSNGYTYLFWFLQRPGQSPQLLIYRMSNLASGVPDRFSGSGSGTAFTLRISRVEAEDVGVYYCMQHLEYPFTFGGGTKLEIK
notes: Tested as a mouse monoclonal IgG; also called 3-A04
B4: the Kd in assay [1] came out at 0.436 nM; in assay [2], 2.32 nM; in assay [3] it was 0.436 nM. The same molecule came in with a kon in assay [3] of 447000 M⁻¹ s⁻¹.

B5: 3-M12 (antibody, V domains shown)
VH: DVQLQESGPGLVKPSQSLSLTCSVTGYSITSGYYWNWIRQFPGNKLEWMGYITFDGANNYNPSLKNRISITRDTSKNQFFLKLTSVTTEDTATYYCTRSSYDYDVLDYWGQGTTLTVSS
VL: DIQMTQTTSSLSASLGDRVTISCRASQDISNFLNWYQQRPDGTVKLLIYYTSRLHSGVPSRFSGSGSGTDFSLTVSNLEQEDIATYFCQQGHTLPYTFGGGTKLEIK
notes: as for B1
As for B5, the Kd in assay [1] worked out at 0.768 nM; in assay [2] it was 5.18 nM; in assay [3], 0.768 nM. For the same molecule, the kon in assay [3] was 166000 M⁻¹ s⁻¹.

B6: 9-C4 (antibody, V domains shown)
VH: EVQLMESGGDLVKPGGSLKLSCAASGFTFSSYGLSWVRQTPDKRLEWVATITSGGSYTYYPDSVKGRFTISRDNARNTLYLQMFSLKSEDTAMYYCALWSLDYWGQGTTLTVSS
VL: QIVLTQSPAIMSASPGEKVTMTCSANSSLSYMHWYQQKPGTSPKRWIYDTSELASGVPARFSGSGSGTSYSLTISSMEAEDAATYYCHQRRSYPWTFGGGTKLEIK
notes: Tested as a mouse monoclonal IgG; also called 9-C04
Regarding B6, the Kd in assay [1] was found to be 14.8 nM; in assay [2] it was 12 nM; in assay [3] it was 14.1 nM. Further, in assay [3], the kon was 41000 M⁻¹ s⁻¹.

B7: 9-D4 (antibody, V domains shown)
VH: QVQLQQSGTELARPGASVKLSCKASGFTFTDYGINWVKQRTGQGLEWIGEIYPSSGNSYYNEKFKAKATLTADKSSSTAYMELRSLTSEDSAVYFCARSTYYGSPIDYWGQGTTLTVSS
VL: DIVMTQSHKFMSTPVGDRVSITCKASQDVDTTVAWYQQKPGQSPKLLIYWASTRQIGVPDRFTGSGSGTDFTLTISNVQSEDLADYFCQQYSTYPLTFGGGTKLEIK
notes: Tested as a mouse monoclonal IgG; also called 9-D04
In the case of B7, the results for the Kd in assay [1], in assay [2] and in assay [3] were 5.8 nM, 0.868 nM and 5.86 nM, respectively. In addition, the kon in assay [3] is 42000 M⁻¹ s⁻¹.

B8: 4-C5 (antibody, V domains shown)
VH: QVQLQQSGAELMKPGASVKISCKATGYTFSNYWIEWVKQRPGHGLEWIGEILPGSGSTNYNENFKGKATFTADTSSNTAYMQLSSLTSEDSAVYYCARRGAYGNFHYWGQGTTLTVSS
VL: EIVLTQSPALMAASPGEKVTITCSVSSSISSSNLHWYQQKSETSPKPWIYGTSNLASGVPVRFSGSGSGTSYSLTISSMEAEDAATYYCQQWRSYPYTFGGGTKLEIK
notes: Tested as a mouse monoclonal IgG; also called 4-C05
Regarding B8, the results for the Kd in assay [1], in assay [2] and in assay [3] were 1.38 nM, 13.6 nM and 1.61 nM, respectively. The kon in assay [3] was determined as 30100 M⁻¹ s⁻¹.

B9: 3-M9 (antibody, V domains shown)
VH: EVQLQQSGAELVRPGASVKLSCTASDFNIKDDYIHWVKQRPEQGLEWIGRIDPANGNTKYAPKFQDKATITADTSSNTAYLQLSSLTSEDTAVYYCALGYTYWGQGTTLTVSS
VL: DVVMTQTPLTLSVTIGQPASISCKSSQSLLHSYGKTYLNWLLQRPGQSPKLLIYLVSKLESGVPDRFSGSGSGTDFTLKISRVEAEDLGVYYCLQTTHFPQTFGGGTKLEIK
notes: Tested as a mouse monoclonal IgG; also called 3-M09
Take B9: the Kd in assay [1] turned out to be 2.5 nM; in assay [2], 4.37 nM; in assay [3], 2.54 nM. For the same molecule, the kon in assay [3] turned out to be 150000 M⁻¹ s⁻¹.

B10: 4-J22 (antibody, V domains shown)
VH: EVQLQQSGAELVRSGASVKLSCTASGFNIKDYYIHWVKQRPEQGLEWIGWIDPENADTEYAPKFQGKATMTPDTSSNTAYLQLSSLTSEDTAVYYCYAWDYSMDYWGQGTSVTVSS
VL: DVVMTQTPLSLSVSLGDQASISCRSSQSLVHSNGNTYLHWYLQKPGQSPKLLIYKVSNRFSGVPDRFSGSGSGTDFILKISRVEAEDLGVYFCSQNTHVPYTFGGGTRLEIK
notes: as for B1
For the molecule B10, the Kd in assay [1] was 3.41 nM; in assay [2], 1.37 nM.

B11: 8-O17 (antibody, V domains shown)
VH: QVQLKESGPGLVAPSQSLSITCTVSGFSLTNYGVHWVRQPPGKGLEWLVVIWNDGSATYNSALESRLSISKDNSKSQVFLKMNSLQTDDTAMYYCARHESSNPFAYWGQGTLVTVSA
VL: DILLTQSPAILSVSPGERVSFSCRASQSIGTSIHWYQQRTNGSPRLLIKSASESIAGIPSRFSGSGSGTDFTLSINSVESEDIADYYCQQNNRWPYTFGGGTKLEIK
notes: as for B1
Consider B11, for which the Kd in assay [1] was 2.24 nM; in assay [2] it was 1.1 nM; in assay [3] it was 1.83 nM. In assay [3], this molecule came in with a kon of 49900 M⁻¹ s⁻¹.

B12: 8-K6 (antibody, V domains shown)
VH: QVHLQQPGAELVKPGASVKMSCKASGYTFTSYWITWVKQRPGQGLEWIGDIFPNSGRTNYDEKFKSKATLTVDTSSSTAYMQLSSLTSEDSAVYFCAREGNFGSLDYWGQGTTLTVSS
VL: QIVLTQSPAIMSASPGEKVTMTCSANSNLNYMNWYHQKSGTSPKRWIYDTSKLASGVPARFSASGSGTSYSLTISSMEAEDAATYYCQQWSRNPLTFGAGTRLELK
notes: Tested as a mouse monoclonal IgG; also called 8-K06
Regarding B12, the Kd was 0.0678 nM in assay [1], 0.376 nM in assay [2] and 0.0694 nM in assay [3]. The kon in assay [3] came out at 144000 M⁻¹ s⁻¹.

B13: 3-E5 (antibody, V domains shown)
VH: EIQMKQSGAELVKPGASVKISCKASGYSFTGYNMNWVKQSHGKSLEWIGNINPYYGSTGYNQKFKGKATLTVDKSSSTAYMQLNSLTSEDSAVYYCARGDYGYDEGTWFAYWGQGTLVTVSA
VL: DIVMSQSPSSLAVSAGEKVTMSCKSSQSLLNSRTRKNYLAWYQQKPEQSPKLLIYWASTRESGVPDRFTGSGSGTDFTLTISSVQAEDLAVYYCKQSYNLPFTFGSGTKLEIK
notes: Tested as a mouse monoclonal IgG; also called 3-E05
Take B13: the Kd in assay [1] was 0.455 nM; in assay [2], 0.671 nM; in assay [3], 0.455 nM. The molecule further came in with a kon in assay [3] of 22000 M⁻¹ s⁻¹.

B14: 6-D3 (antibody, V domains shown)
VH: QVQLQQPGAELVKPGASVKMSCKASGYTFTRHWITWVKQRPGQGLEWIGDIYPGSGRTNYNEKFKSTATLTVDTSSSTAYMQLSSLTSEDSAVYYCARDGYLYINYFDYWGQGTTLTVSS
VL: ENVLTQSPAIMSASPGEKVTMTCSASSSVSFMHWFQQKSSTSPKLWIYDTSKLASGVPGRFSGSGSGSSYSLTISSMAAEDVATYYCFQGSGYPYTFGGGTKLEIK
notes: Tested as a mouse monoclonal IgG; also called 6-D03
Consider B14, for which the Kd was 0.986 nM in assay [1], 0.778 nM in assay [2] and 0.986 nM in assay [3]. The same molecule displayed a kon in assay [3] of 108000 M⁻¹ s⁻¹.

B15: 9-K23 (antibody, V domains shown)
VH: QVTLKESGPGMLQPSQTLSLTCSFSGFSLNTYDVGVGWIRQPSGKGLEWLANIWWNDDKYYNSALKSRLTISKDTSNNQVFLKISSVDTADTATYYCTLYSYDGGFAYWGQGTLVTVSA
VL: QIVLTQSPAIMSASLGERVTMTCTASSSVSSSYLHWYQQKPGSSPKLWIYSTSNLASGVPARFSGSGSGTSYSLTISSMEAEDAATYYCHQYHRSPYTFGGGTKLEIK
notes: as for B1
As for B15, the Kd in assay [1] was determined as 0.32 nM; in assay [2] it was 0.662 nM; in assay [3], 0.401 nM. This molecule yielded a kon in assay [3] of 54000 M⁻¹ s⁻¹.

The values are drawn from patent publication US20230144436A1 (DYNE THERAPEUTICS, published 2023).
